Experiments:
[1] = system: oestrogen response elements (EREs); assay: ERE-LUC dual-luciferase reporter assay in MCF-7 cells; type: cell-based, human; settings: 24 h treatment, FIG. 5
Procedure: MCF-7 cells were seeded onto 24-well plates with a cell/well density of […] and were co-transfected with 1 μg of the 3×ERE TATA LUC construct, a plasmid containing the reporter gene for firefly luciferase under the control of three DNA sequences to which the ER binds, called oestrogen response elements (EREs) (Addgene), and with 300 ng of control pRL-TK plasmid (renilla luciferase) for normalisation of the efficiency of the transfection process. The transfections were carried out using lipofectamine 2000 (Invitrogen) according to manufacturer's instructions. After 6 h, the cells were treated with KGF or E2. The luciferase activity was determined using a dual-luciferase reporter assay system (Promega) 24 h after the treatment, according to manufacturer's protocol. All the transfections were conducted in triplicate.

vaginal epithelium = assay: Vaginal atrophy model in ovariectomised CD1 mice, local hydrogel treatment, histology; type: in vivo, mouse; settings: for cornification of vaginal epithelium (hematoxylin and eosin) / stratification of the vaginal epithelium and hyperkeratosis (hematoxylin and eosin): low and high doses, 60 days; for cornification of vaginal epithelium (hematoxylin and eosin): not in vehicle group, FIG. 8A; for stratification of the vaginal epithelium and hyperkeratosis (hematoxylin and eosin): versus vehicle only, FIG. 7B
Procedure: The mouse strain CD1 was used in this study (Charles Rivers). The mice were held in a standard housing for laboratory animals with controlled lighting (12 h/day) and temperature (25±1° C.) and were provided with food and water ab libitum. All the experimental protocols concerning animals were in line with the Guidelines of Sapienza University for the care and use of laboratory animals and were approved by the Ethical Committee of the aforesaid institution. Forty female mice were subjected to an ovariectomy for the purpose of inducing vaginal atrophy and were administered a diet of Altromin C1000 without phytoestrogens (Altromin, Lage, Germany) for the duration of the experiments. After 30 days, the mice were treated locally, introducing daily into the vaginal canal 25 μl of hydrogel loaded with KGF (10 or 30 ng/day) or with E2 (30 ng/day or 1 μg/day). A control group was treated only with hydrogel. After 60 days of treatment, the mice were killed and the vaginas were immediately explanted, fixed in formalin and processed for histological analysis.
Serial sections of the vaginal mucus obtained from four groups of mice were stained with hematoxylin/eosin, placed permanently under a glass plate and analysed histologically. The thickness and the strata of epithelial cells of the vagina were then determined in three animals for each group, in three images for each animal (10× enlargement). Mean values were obtained from five measurements of each image. For the purpose of quantifying the thickness of the vaginal epithelium, the vertical distance between the lower surface of the cells in the stratum basale and the apical surface of the cells in the stratum superficiale was measured with the aid of NIH Image J v 1.56 (National Institutes of Health, Bethesda, Md.), and denoted as thickness. To estimate the number of vaginal epithelial layers, the layer of cells covering five contiguous basal cells was counted in the sample.
Serial sections of the vaginal mucus obtained from the four groups of mice were analysed for the expression of PCNA (Proliferating Cell Nuclear Antigen, a marker of cell proliferation) by means of immunohistochemistry. The sections were elaborated using the technique of avidin-biotin-peroxidase complex (DAKO, Glostrup, Denmark) and incubated with mouse anti-A-rat-PCNA monoclonal antibody (clone P10, 1:4000) (Abcam, Cambridge, UK), which recognises proliferant cells.
All the animals enrolled in the study were fed with a special diet devoid of oestrogens (special altromin C1000 phytoestrogen-free diet). The mice subject to an ovariectomy were then divided into […]: one group received no treatment; one group received only the vehicle; one group received the vehicle+E2 30 ng/day; one group received the vehicle+E2 1 μg/day; one group received the vehicle+KGF 10 ng/day; and one group received the vehicle+KGF 30 ng/day.
The animals were killed and the vaginas removed and immediately fixed in formalin and processed for histology. Vaginal epithelium of the treated mice was analysed histologically by means of hematoxylin/eosin and was compared with the epithelium of the group of mice not subjected to ovariectomy (FIGS. 7B and 8A). The criteria adopted in order to determine the trophism of the vaginal mucus were the thickness (evidenced by counting the number of epithelial layers present and by measuring the thickness of the epithelium in μm and also by means of the ratio between area of the epithelial layer and length of the basal membrane) (FIG. 8B) and the proliferative ability of the keratinocytes (determined by means of analyses of the expression of PCNA, a marker of cell proliferation) (FIG. 9).

[2] = system: human oestrogen-sensitive keratinocytes (KCs); assay: Proliferation of primary vaginal keratinocytes (Ki67 immunofluorescence; crystal violet); type: cell-based; settings: for proliferative effect in the presence of tamoxifen: tamoxifen 100 nM, anti-Ki67 and crystal violet, FIG. 1D
Procedure: The oestrogen receptor α-positive MCF-7 human breast adenocarcinoma cell line, acquired from American Type Culture Collection (no. HTB-22, ATCC-LGC Promochem, Teddington, UK), was cultured in Dulbecco's modified eagle's medium (DMEM; Invitrogen, Karlsruhe, Germany), supplemented with 10% foetal bovine serum (FBS; Invitrogen) and antibiotics. Primary cultures of human oestrogen-sensitive keratinocytes (KCs) were established from 1 cm^2 full-thickness mucosal biopsy of the vaginal vestibule. Following enzymatic dissociation, the keratinocytes were seeded onto culture plates coated with collagen IV (10 mg/ml), as previously reported [Panici et al, 2007], and were maintained in basal medium of the keratinocytes (KBM, Lonza) supplemented with aliquots of KGM (Lonza), with medium change twice a week. For all the experiments with 17β-oestradiol (E2) and tamoxifen, the MCF-7 cells were cultivated in DMEM without phenol red with 10% FBS treated with dextran/carbon (Invitrogen), and the KCs were transferred to a steroid medium of reduced concentration (KGM without EGF and BPE). […]
The cells, grown on glass coverslips, were treated as described above, then fixed in 4% paraformaldehyde in phosphate-buffered saline (PBS) for 30 min at 25° C., followed by treatment with 0.1 M glycine in PBS for 20 min at 25° C. and with 0.1% Triton X-100 in PBS for an additional 5 min at 25° C. to allow permeabilisation. To assess cell proliferation, the cells were incubated with an anti-Ki67 rabbit polyclonal antibody (1:50 in PBS; Zymed Laboratories, San Francisco, Calif.), which identifies cycling cells. The primary antibody was visualised using Texas Red conjugated goat anti-rabbit IgG (1:100 in PBS; Jackson ImmunoResearch Laboratories, West Grove, Pa.). The nuclei were visualised using 4′,6-diamido-2-phenylindole dihydrochloride (DAPI) (1:10000 in PBS; Sigma-Aldrich). Fluorescence signals were analysed by recording stained images using a cooled CCD colour digital camera SPOT-2 (Diagnostic Instruments Incorporated, Sterling Heights, Mich.) and Axiovision software (Carl Zeiss Inc., Oberkochen, Germany).
The percentage of Ki67-positive cells was evaluated by counting, for each treatment, a total of 500 cells, randomly taken from ten microscopic fields in three different experiments, expressed as mean value±95% CI and recorded as graphs. For the experiments concerning localisation of ERα, the cytoskeleton of actin was visualised using TRITC phalloidin (1:100 in PBS) and ERα was visualised using an anti-ERα monoclonal antibody (Santa Cruz) (1:100 in PBS). The stained single and combined images were captured using Zeiss Apotome® and AxioVision software (Carl Zeiss, Jena, Germany) using 40× lenses.
To evaluate the cytotoxicity of cells treated with tamoxifen, the MCF-7 cells were treated as described above, fixed for 10 min in a solution of 10% acetic acid-10% methanol, stained with crystal violet (1% w/v) and photographed using a Power Shot G5 digital camera (Canon, Inc., Tokyo, Japan).

Molecule: C[C@]12CC[C@@H]3c4ccc(O)cc4CC[C@H]3[C@@H]1CC[C@@H]2O [E2, 17β-oestradiol]
- activation of ERE-luciferase construct (genomic pathway) [1]: able to determine the activation of such a construction
- cornification of vaginal epithelium (hematoxylin and eosin) (vaginal epithelium): Cornificated vaginal epithelium was observed
- stratification of the vaginal epithelium and hyperkeratosis (hematoxylin and eosin) (vaginal epithelium): significant induction of stratification of the vaginal epithelium and hyperkeratosis
- efficacy in terms of cell proliferation of E2 compared to KGF (Ki67-positive cells) ([2]; low doses (0.5 ng/ml), 24 h, FIG. 1A): 1.2 fold increase
- proliferative effect in the presence of tamoxifen [2]: inhibited by the presence of tamoxifen

B1: keratinocyte growth factor (protein, listed as Homo sapiens)
chain: MHKWILTWILPTLLYRSCFHIICLVGTISLACNDMTPEQMATNVNCSSPERHTRSYDYMEGGDIRVRRLFCRTQWYLRIDKRGKVKGTQEMKNNYNIMEIRTVAVGIVAIKGVESEFYLAMNKEGKLYAKKECNEDCNFKELILENHYNTYASAKWTHNGGEMFVALNQKGIPVRGKKTKKEQKTAHFLPMAIT
notes: human recombinant KGF (Upstate Biotechnology)
- activation of ERE-luciferase construct (genomic pathway) [1]: absence of stimulation of the genomic pathway of the oestrogens
- increase in epithelial thickness, KGF versus E2 (vaginal epithelium; KGF at 30 ng/25 ul and E2 at 1 ug/25 ul, FIG. 8B): same increase in epithelial thickness
- cornification of vaginal epithelium (hematoxylin and eosin) (vaginal epithelium): Cornificated vaginal epithelium was observed
- stratification of the vaginal epithelium and hyperkeratosis (hematoxylin and eosin) (vaginal epithelium): significant induction of stratification of the vaginal epithelium and hyperkeratosis
- epithelium lubrication / mucinous (PAS-positive) cells (vaginal epithelium; topical KGF, PAS staining, FIG. 9B): restore epithelium lubrication through stimulation of mucinous cells
- vaginal thinning / epithelial cell proliferation (vaginal epithelium; topical KGF, ovariectomised mice, FIG. 9): able to counteract vaginal thinning by stimulating epithelial cells proliferation
- proliferative effect compared to E2 (Ki67-positive cells) ([2]; 20 ng/ml for KGF and 2.7 ng/ml for E2, FIG. 1A): absolutely comparable to that of the hormone
- stimulation of proliferation of the vaginal epithelium in pre-menopausal and post-menopausal populations ([2]; 20 ng/ml, KC from pre-menopausal and post-menopausal women, FIG. 1B): able to stimulate proliferation of the vaginal epithelium in a manner comparable to that of oestradiol
- proliferative effect in the presence of tamoxifen [2]: able to stimulate cell proliferation even in the presence of tamoxifen
